Experiments:
[1] = target: LiaS (Enterococcus faecalis); test: MST
[2] = target: MadS (Enterococcus faecalis); test: MST

| Substance | Kd [1] | Kd [2] |
| --- | --- | --- |
| MadR (natural protein) | 5.02 µM | 8.08 µM |
| LiaR (natural protein) | 2.42 µM | 25.7 µM |
